The values that follow come from PMC5805371.

This assay has as its target MYC-tagged TNPO1 (UniProt Q92973). The assay is described as follows: co-immunoprecipitation with luciferase readout (anti-MYC IP). The note with it: HEK293 cells expressing MYC-TNPO1 and PER1PY/Cys_mut-LUCIFERASE; control IgG IP (filled bar) est. 0.75 ± 0.19; n.s.; means ± SD of five; read off a plot.
Sequence of UniProt Q92973 (Q92973 whole entry): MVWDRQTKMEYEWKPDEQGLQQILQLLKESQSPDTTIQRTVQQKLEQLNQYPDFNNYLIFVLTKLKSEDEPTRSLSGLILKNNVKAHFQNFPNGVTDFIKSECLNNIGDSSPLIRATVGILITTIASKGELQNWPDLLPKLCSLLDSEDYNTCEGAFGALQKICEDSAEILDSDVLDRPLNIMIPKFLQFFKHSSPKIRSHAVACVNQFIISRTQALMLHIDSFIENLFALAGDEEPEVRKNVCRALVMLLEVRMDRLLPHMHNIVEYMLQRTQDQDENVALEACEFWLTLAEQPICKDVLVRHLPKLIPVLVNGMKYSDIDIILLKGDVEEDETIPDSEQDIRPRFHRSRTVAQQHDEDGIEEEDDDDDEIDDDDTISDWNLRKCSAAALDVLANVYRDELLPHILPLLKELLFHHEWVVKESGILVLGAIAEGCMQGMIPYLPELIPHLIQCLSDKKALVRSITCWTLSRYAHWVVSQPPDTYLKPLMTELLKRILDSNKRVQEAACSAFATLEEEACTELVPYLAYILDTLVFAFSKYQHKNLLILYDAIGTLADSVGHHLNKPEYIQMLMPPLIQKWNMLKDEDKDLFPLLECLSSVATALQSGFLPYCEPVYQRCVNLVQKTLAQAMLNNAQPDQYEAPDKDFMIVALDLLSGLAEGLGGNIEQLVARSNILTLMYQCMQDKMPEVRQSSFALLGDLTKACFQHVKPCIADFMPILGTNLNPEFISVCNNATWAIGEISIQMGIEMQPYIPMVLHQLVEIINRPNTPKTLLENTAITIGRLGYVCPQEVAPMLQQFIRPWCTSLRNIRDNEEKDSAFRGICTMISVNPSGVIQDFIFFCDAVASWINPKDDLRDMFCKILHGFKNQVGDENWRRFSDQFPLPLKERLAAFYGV

“PER1 fused to full-length firefly luciferase (HEK293) (from UniProt O15534) P883A; Y884A; P935A; Y936A; seven C-terminal Cys to Ala (positions not printed)”: the response stood at 0.75.
